Substrate in the data set: N[C@H]1C(O)O[C@H](CO)[C@@H](O[C@@H]2O[C@H](CO)[C@H](O)[C@H](O)[C@H]2O)[C@@H]1O
Put plainly: Sialyltransferase activity of ST6Gal 1 assayed with CD73. The format is biochemical, human. The settings on record: other: acceptor varied, CMP-NeuAc fixed at 0.2 mM; pH 7.5. An excerpt:
The GDP-Fucose, UDP-Glucose, CMP-NeuAc, CMP, UDP and GDP used in the following experiments were obtained from Sigma-Aldrich (St Louis, Mo.). The recombinant human Fut7, ST6Gal1, CD73, CD39L3, non-specific alkaline phosphatase TNAP, recombinant Clostridium Difficile toxin B (TcdB) containing the glycosyltransferase domain and Malachite Green Phosphate Detection Kit were obtained from R&D Systems (Minneapolis, Minn.). The 3′-Sialyl-N-acetyllactosamine was obtained from V-LABS, Inc (Convington, La.). Unless otherwise specified, each glycosyltransferase reaction was performed in 50 μL of a buffer of 25 mM Tris, 150 mM NaCl, 5 mM MgCl2 and 5 mM MnCl2, at pH 7.5 in a 96-well plate at room temperature for 20 minutes. […] The plate was then read at 620 nm with a multi-well plate reader.
Sialic acid is negatively charged under normal pH conditions, making sialyltransferases more difficult to assay than other glycosyltransferases. […] The results are shown in FIG. 7, and the specific activities against lactosamine and lactose were determined to be 458 and 41 pmol/min/μg respectively, confirming that the enzyme strongly favors lactosamine structure. The apparent Km and Vmax were determined for one substrate while fixing the other by fitting the data to KaleidaGraph 4 program.

What is called Km is the concentration of substrate that gives half-maximal velocity.

B1: ST6Gal 1 (Homo sapiens) (protein)
chain: MIHTNLKKKFSCCVLVFLLFAVICVWKEKKKGSYYDSFKLQTKEFQVLKSLGKLAMGSDSQSVSSSSTQDPHRGRQTLGSLRGLAKAKPEASFQVWNKDSSSKNLIPRLQKIWKNYLSMNKYKVSYKGPGPGIKFSAEALRCHLRDHVNVSMVEVTDFPFNTSEWEGYLPKESIRTKAGPWGRCAVVSSAGSLKSSQLGREIDDHDAVLRFNGAPTANFQQDVGTKTTIRLMNSQLVTTEKRFLKDSLYNEGILIVWDPSVYHSDIPKWYQNPDYNFFNNYKTYRKLHPNQPFYILKPQMPWELWDILQEISPEEIQPNPPSSGMLGIIIMMTLCDQVDIYEFLPSKRKTDVCYYYQKFFDSACTMGAYHPLLYEKNLVKHLNQGTDEDIYLLGKATLPGFRTIHC
notes: purchased R&D Systems
Consider B1, for which the Km was found to be 1800 ± 400 µM and the Vmax came out at 496 ± 38 pmol/min/µg.

These data come from patent publication US9410182B2, “Phosphatase coupled glycosyltransferase assay” (Bio-Techne Corporation, priority 2010, dated 2016).
